Laboratory results reported in patent US6265551A, “Form of dipeptidylpeptidase IV (CD26) found in human serum, antibodies thereto, and uses thereof” (Dana-Farber Cancer Institute, Inc., priority 1996, dated 2001).

Substrate: NCC(=O)N1CCC[C@H]1C(=O)Nc1ccc([N+](=O)[O-])cc1
Assay: purified protein, by the assay type
Settings: other: rsCD26; Lineweaver-Burke transformation; substrate at different concentrations; 20.0 °C
Protocol: The DPPIV enzyme activities of the rsCD26 and serum DPPIV were analyzed by Michaelis-Menten kinetics by assessing kinetics of hydrolysis of substrate at different concentrations.
DPPIV activity: The primary substrate used for determining DPPIV activity in all assays was Gly-Pro-p-nitroanilide (Gly-Pro-pNA; Sigma), which is hydrolyzed by DPPIV to release pNA absorbing strongly at 405 nm. Kinetic assays were performed using varying amounts of substrate in order to obtain estimates of the Km and Vmax using standard Michaelis-Menten kinetics. For screening assays of DPPIV activity, 150 ml of substrate was used at 1 mg/ml (2 mM final concentration) in phosphate buffer (pH7.6, 100 mM) in 96 well flat-bottomed microtiter plates together with 10 ml of appropriately diluted sample. For samples obtained after elution from the s-Sepharose column, the pH was raised to pH7.6 by addition of 25 μl of 1M Tris-HCl, pH7.6 to the reaction mixture. One unit (U) of enzyme activity was defined as the amount of enzyme that cleaved 1 mmol of Gly-Pro-pNA/min at pH7.6 and 20° C. […] The pH optimum was determined substituting phosphate buffer (100 mM, pH4.5-pH9) in place of standard incubation buffer.

B1: recombinant soluble CD26 (rsCD26), full extracellular domain of human T cell membrane CD26/DPPIV, 105 kDa form, from transfected CHO cells (Homo sapiens) (protein)
chain: NKGTDDATADSRKTYTLTDYLKNTYRLKLYSLRWISDHEYLYKQENNILVFNAEYGNSSVFLENSTFDEFGHSINDYSISPDGQFILLEYNYVKQWRHSYTASYDIYDLNKRQLITEERIPNNTQWVTWSPVGHKLAYVWNNDIYVKIEPNLPSYRITWTGKEDIIYNGITDWVYEEEVFSAYSALWWSPNGTFLAYAQFNDTEVPLIEYSFYSDESLQYPKTVRVPYPKAGAVNPTVKFFVVNTDSLSSVTNATSIQITAPASMLIGDHYLCDVTWATQERISLQWLRRIQNYSVMDICDYDESSGRWNCLVARQHIEMSTTGWVGRFRPSEPHFTLDGNSFYKIISNEEGYRHICYFQIDKKDCTFITKGTWEVIGIEALTSDYLYYISNEYKGMPGGRNLYKIQLSDYTKVTCLSCELNPERCQYYSVSFSKEAKYYQLRCSGPGLPLYTLHSSVNDKGLRVLEDNSALDKMLQNVQMPSKKLDFIILNETKFWYQMILPPHFDKSKKYPLLLDVYAGPCSQKADTVFRLNWATYLASTENIIVASFDGRGSGYQGDKIMHAINRRLGTFEVEDQIEAARQFSKMGFVDNKRIAIWGWSYGGYVTSMVLGSGSGVFKCGIAVAPVSRWEYYDSVYTERYMGLPTPEDNLDHYRNSTVMSRAENFKQVEYLLIHGTADDNVHFQQSAQISKALVDVGVDFQAMWYTDEDHGIASSTAHQHIYTHMSHFIKQCFSLP
For B1, the Km was 280 µM.
